Measured values: patent US20240167012

Legend:
[1] = tested on: gliadin
[2] = tested on: T1, gluten immunogenic peptide 33-mer from α-gliadin
T1 sequence: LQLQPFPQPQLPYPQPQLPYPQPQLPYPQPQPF

[3] = tested on: T2, gluten immunogenic peptide 26-mer from γ-gliadin
T2 sequence: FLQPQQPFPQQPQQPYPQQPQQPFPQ

[4] = tested on: T3, aspartic protease Rhodotorulapepsin
T3 sequence: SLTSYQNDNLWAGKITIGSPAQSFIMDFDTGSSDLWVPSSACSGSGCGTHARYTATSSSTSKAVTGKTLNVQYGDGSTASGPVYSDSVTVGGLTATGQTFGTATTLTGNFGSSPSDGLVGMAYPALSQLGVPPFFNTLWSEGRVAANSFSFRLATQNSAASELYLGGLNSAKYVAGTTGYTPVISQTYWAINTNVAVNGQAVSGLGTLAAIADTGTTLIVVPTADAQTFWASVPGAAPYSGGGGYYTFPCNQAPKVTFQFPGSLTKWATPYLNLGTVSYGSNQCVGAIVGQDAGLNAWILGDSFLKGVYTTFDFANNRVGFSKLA

**Q.** Which “hydrolysis of gliadin 7.5 mg/ml, SDS-PAGE (pH 3.0, 3 h)” value [1] does the source give for pepsin here?
**A.** when only 250 µg/ml of pepsin was included in the enzyme mixture, gliadin was not completely hydrolyzed

**Q.** What about the “hydrolysis of gliadin, SDS-PAGE of residual gliadin (pH 3.0, 37° C., enzyme:gliadin 1:500)” value [1] of the same substance?
**A.** gliadin was not hydrolyzed by pepsin even after 150 minutes of reaction

**Q.** And the “relative activity to hydrolyze gliadin, ELISA of residual gliadin (pH 2.5, 1.5 h, pepsin 1 mg/ml)” value [1]?
**A.** the relative activity of the simulated gastric acid environment to hydrolyze gliadin is 13%

**Q.** What about the “hydrolysis of the 33-mer, RP-HPLC (pH 3.0 and pH 5.0)” value [2] of the same substance?
**A.** gluten immunogenic peptides 26-mer and 33-mer were not degraded after the same reaction time

**Q.** And the “hydrolysis of the 26-mer, RP-HPLC (pH 3.0 and pH 5.0)” value [3]?
**A.** gluten immunogenic peptides 26-mer and 33-mer were not degraded after the same reaction time

**Q.** And the “resistance of the protease to pepsin hydrolysis, inferred from gliadin hydrolysis in the presence of pepsin” value [4]?
**A.** the aspartic protease Rhodotorulapepsin is resistant to pepsin hydrolysis
